# Results taken from the supplement of paper PMC10567573.
# B1: TBX5 (parent)
# chain: YQNHKITQLKIENNPFAKGFRGSD
# B2: MNAT1 (parent)
# chain: LAPIHKLEEALYEYQPLQIETYGP
# Variants of: B1
# Experiment: protein stability index of a GFP-peptide fusion (GPS, HEK-293T) (PSI 1-6); higher = more stable
# Conditions: c terminus: a fixed tail appended
# 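Also: lentivirally expressed fusions sorted by FACS into six bins by GFP to DsRed ratio, PSI derived from sequencing read proportions per bin multiplied by bin number.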
row,Variant,protein stability index
1,D24V,1.83
2,D24M,2.43
3,D24I,2.08
4,D24L,1.95
5,D24Y,2.04
6,D24C,2.25
7,D24F,1.95
8,D24A,2.43
9,D24P,2.39
10,D24H,1.99
11,D24W,1.32
12,D24R,2.69
13,D24S,2.14
14,D24T,2.11
15,D24K,2.53
16,D24G,2.39
17,D24E,2.64
18,D24Q,1.88
19,D24N,2.57
20,G22E,2.33
21,G22P,3.32
22,G22T,2.67
23,G22I,2.48
24,G22L,2.02
25,G22A,2.37
26,G22M,2.49

row,Variant,protein stability index
1,G22H,2.46
2,G22K,2.49
3,G22V,2.32
4,G22N,2.4
5,G22D,2.56
6,G22Q,2.83
7,G22S,2.57
8,G22C,2.24
9,G22Y,2.63
10,G22R,2.12
11,G22F,1.74
12,G22W,1.76
13,S23D,2.83
14,S23K,2.64
15,S23I,2.12
16,S23P,2.55
17,S23A,2.25
18,S23L,2.11
19,S23Y,2.55
20,S23V,2.35
21,S23H,2.47
22,S23C,2.49
23,S23M,2.18
24,S23T,2.3
25,S23Q,2.71
26,S23R,2.63

row,Variant,protein stability index
1,S23N,2.39
2,S23F,1.92
3,S23W,2.02
4,S23E,2.42
5,S23G,2.59
6,G19M,2.29
7,G19V,2.31
8,G19L,2.05
9,G19A,2.75
10,G19I,1.85
11,G19F,2.16
12,G19N,2.19
13,G19W,1.88
14,G19Q,3.1
15,G19P,2.85
16,G19K,2.59
17,G19C,1.74
18,G19R,2.22
19,G19Y,2.36
20,G19E,3.99
21,G19S,2.76
22,G19H,2.55
23,G19T,2.53
24,G19D,2.7
25,F20L,2.79
26,F20K,3.11

row,Variant,protein stability index
1,F20H,3.27
2,F20D,3.41
3,F20Y,2.49
4,F20Q,3.19
5,F20V,2.63
6,F20M,2.69
7,F20N,3.28
8,F20G,2.98
9,F20R,3.02
10,F20P,2.88
11,F20E,3.56
12,F20I,2.47
13,F20S,3.23
14,F20W,2.73
15,F20A,3.41
16,F20C,2.85
17,F20T,3.04
18,K18L,2.06
19,K18Q,2.37
20,K18T,1.67
21,K18I,2.49
22,K18M,2.06
23,K18P,2.54
24,K18Y,2.12
25,K18H,2.09
26,K18W,1.63

row,Variant,protein stability index
1,K18G,1.81
2,K18V,2.07
3,K18R,2.77
4,K18S,2.31
5,K18N,2.23
6,R21N,2.61
7,R21G,2.46
8,R21M,2.55
9,R21D,2.95
10,R21Y,2.96
11,R21H,2.52
12,R21L,2.15
13,R21F,2.89
14,R21S,2.76
15,R21W,1.8
16,R21C,2.34
17,R21P,2.74
18,R21V,2.51
19,R21E,2.58
20,R21I,2.19
21,R21T,2.44
22,R21Q,2.57
23,R21K,2.64
24,R21A,2.32

# Variants of: B2
# Experiment: as above
# Conditions: c terminus: a fixed tail appended
row,Variant,protein stability index
1,L1S,2.62
2,L1Q,2.47
3,L1I,1.94
4,L1T,2.33
5,L1H,1.67
6,L1R,2.5
7,L1E,2.52
8,L1W,2.56
9,L1K,2.33
10,L1P,2.3
11,L1G,1.98
12,L1A,2.28
13,L1N,2.79
14,L1M,1.87
15,L1D,2.31
16,L1C,1.25
17,L1V,2.31
18,L1Y,2.12
19,L11Q,3.23
20,L11I,2.3
21,L11P,3.17
22,L11V,2.9
23,L11D,3.71

row,Variant,protein stability index
1,L11K,3.38
2,L11F,2.07
3,L11G,3.48
4,L11W,2.14
5,L11A,3.55
6,L11H,2.54
7,L11M,2.34
8,L11E,3.57
9,L11Y,2.42
10,L11R,2.77
11,L11C,2.69
12,L11N,3.41
13,L11T,2.57
14,P3D,1.46
15,P3G,2.02
16,P3Y,2.18
17,P3W,1.44
18,P3E,1.97
19,P3T,2.32
20,P3H,1.87
21,P3F,2.67
22,P3I,2.72
23,P3Q,1.67

row,Variant,protein stability index
1,P3M,2.48
2,P3C,1.53
3,P3V,2.7
4,P3S,2.12
5,P3R,2.1
6,P3K,2.04
7,P3N,1.32
8,P3A,2.23
9,P3L,2.95
10,I4S,2.3
11,I4H,2.63
12,I4A,2.95
13,I4N,2.35
14,I4L,2.04
15,I4F,1.88
16,I4G,3.06
17,I4K,2.17
18,I4M,1.92
19,I4R,2.75
20,I4P,2.55
21,I4V,2.13
22,I4W,1.59
23,I4Y,1.66

row,Variant,protein stability index
1,I4D,2.78
2,I4E,2.78
3,I4C,2.49
4,I4T,2.15
5,I4Q,2.7
6,A2Q,2.07
7,A2R,1.62
8,A2K,1.92
9,A2F,3.4
10,A2C,1.68
11,A2P,2.3
12,A2T,2.63
13,A2M,1.63
14,A2L,2.93
15,A2E,2.47
16,A2N,2.23
17,A2D,1.77
18,A2Y,1.9
19,A2W,2.44
20,A2G,1.45
21,A2H,2.21
22,A2V,2.54
23,A2I,1.91

row,Variant,protein stability index
1,A2S,2.29
2,E8S,1.75
3,E8A,1.55
4,E8W,3.45
5,E8R,2.26
6,E8Q,2.05
7,E8H,1.67
8,E8M,3.31
9,E8V,1.53
10,E8I,3.59
11,E8G,2.02
12,E8P,2.19
13,E8Y,2.08
14,E8N,1.8
15,E8D,2.52
16,E8C,3.13
17,E8K,2.52
18,E8F,3.18
19,E8T,2
20,A10E,3.04
21,A10P,2.73
22,A10M,1.45
23,A10D,2.91

row,Variant,protein stability index
1,A10T,1.79
2,A10L,1.69
3,A10W,1.8
4,A10N,2.69
5,A10Y,2.35
6,A10F,2.45
7,A10K,2.52
8,A10C,2.09
9,A10V,2.71
10,A10G,2.88
11,A10H,2.28
12,A10S,2.28
13,A10I,2.1
14,A10Q,2.42
15,A10R,2.05
16,E9V,3.14
17,E9S,1.71
18,E9K,2.26
19,E9I,2.42
20,E9P,2.25
21,E9G,2.62
22,E9H,2.15
23,E9F,2.25

row,Variant,protein stability index
1,E9M,2.34
2,E9C,2.68
3,E9Q,1.91
4,E9N,1.78
5,E9Y,1.32
6,E9W,2.08
7,E9A,2.48
8,E9D,2.25
9,E9R,1.91
10,E9L,3.09
11,E9T,2.16
12,K6C,1.64
13,K6M,1.44
14,K6G,1.9
15,K6L,2.29
16,K6P,2.13
17,K6Q,2.24
18,K6H,1.97
19,K6T,1.84
20,K6W,2.4
21,K6V,2.14
22,K6N,2.27
23,K6E,2.27

row,Variant,protein stability index
1,K6A,1.97
2,K6D,1.94
3,K6S,2.24
4,K6I,1.4
5,K6R,1.8
6,K6F,2.75
7,K6Y,2.1
8,L7Y,2.85
9,L7Q,2.97
10,L7S,3.52
11,L7C,2.69
12,L7W,3.02
13,L7V,2.76
14,L7F,2.37
15,L7P,3.29
16,L7G,2.81
17,L7N,2.72
18,L7T,3.33
19,L7K,3.54
20,L7D,4.04
21,L7R,3.06
22,L7I,2.15
23,L7A,3.44

row,Variant,protein stability index
1,L7M,3.05
2,L7E,3.98
3,L7H,3.55
4,H5P,1.84
5,H5Q,2.92
6,H5K,2.62
7,H5V,1.49
8,H5S,2.11
9,H5G,1.96
10,H5D,2.33
11,H5L,1.88
12,H5C,1.64
13,H5Y,1.61
14,H5W,2.34
15,H5N,2.21
16,H5R,2.56
17,H5F,2.03
18,H5A,2.17
19,H5T,1.59
20,H5E,1.92
21,H5M,1.71
22,H5I,1.71
